Reference: the supplement of paper PMC9112550, “Optimization of the antimicrobial peptide Bac7 by deep mutational scanning” (BMC Biology, 2022)

System: Escherichia coli TOP10
Assay: shrunken log2 fold change of peptide-encoding DNA abundance (4.5 h post-induction vs induction); higher = less antimicrobial activity (less host growth inhibition)
Settings: time post-induction: 4.5 h; library: site-saturation at positions 5, 18, 19, 20
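Also: peptides expressed intracellularly from a pBAD plasmid library in pooled LB shake-flask culture, induced with 0.3% L-arabinose, DNA abundance read by NGS, three biological replicates, DESeq2 with apeglm shrinkage.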

Row | Sequence | shrunken log2 fold change
1 | RRIRPRPPRLPRPRPRPQSDPRP | 0.0199
2 | RRIRPRPPRLPRPRPRPQWAPRP | 0.052
3 | RRIRPRPPRLPRPRPRPQWPPRP | -0.0484
4 | RRIRPRPPRLPRPRPRPQWRPRP | 0.308
5 | RRIRPRPPRLPRPRPRPQYYPRP | -0.422
6 | RRIRPRPPRLPRPRPRPRAAPRP | 0.611
7 | RRIRPRPPRLPRPRPRPRADPRP | 0.335
8 | RRIRPRPPRLPRPRPRPRAFPRP | 0.32
9 | RRIRPRPPRLPRPRPRPRAKPRP | 0.692
10 | RRIRPRPPRLPRPRPRPRCCPRP | 0.119
11 | RRIRPRPPRLPRPRPRPRDEPRP | 0.0975
12 | RRIRPRPPRLPRPRPRPRGEPRP | 0.646
13 | RRIRPRPPRLPRPRPRPRGQPRP | 0.204
14 | RRIRPRPPRLPRPRPRPRHPPRP | 0.357
15 | RRIRPRPPRLPRPRPRPRKTPRP | 0.0393
16 | RRIRPRPPRLPRPRPRPRLPPRP | 0.383
17 | RRIRPRPPRLPRPRPRPRLRPRP | 0.458
18 | RRIRPRPPRLPRPRPRPRLVPRP | 0.323
19 | RRIRPRPPRLPRPRPRPRMRPRP | 0.92
20 | RRIRPRPPRLPRPRPRPRNEPRP | 0.139
21 | RRIRPRPPRLPRPRPRPRNSPRP | 0.0183
22 | RRIRPRPPRLPRPRPRPRPQPRP | 0.634
23 | RRIRPRPPRLPRPRPRPRRKPRP | 0.166
24 | RRIRPRPPRLPRPRPRPRSKPRP | -0.149
25 | RRIRPRPPRLPRPRPRPRSTPRP | 0.347

Row | Sequence | shrunken log2 fold change
26 | RRIRPRPPRLPRPRPRPRTAPRP | 0.562
27 | RRIRPRPPRLPRPRPRPRTCPRP | 0.322
28 | RRIRPRPPRLPRPRPRPRTDPRP | 0.165
29 | RRIRPRPPRLPRPRPRPRTRPRP | 0.187
30 | RRIRPRPPRLPRPRPRPRYGPRP | 0.00536
31 | RRIRPRPPRLPRPRPRPRYIPRP | -0.602
32 | RRIRPRPPRLPRPRPRPRYWPRP | 0.0515
33 | RRIRPRPPRLPRPRPRPSCNPRP | -0.314
34 | RRIRPRPPRLPRPRPRPSCRPRP | -0.129
35 | RRIRPRPPRLPRPRPRPSDCPRP | -0.0743
36 | RRIRPRPPRLPRPRPRPSESPRP | 0.000106
37 | RRIRPRPPRLPRPRPRPSGHPRP | -0.395
38 | RRIRPRPPRLPRPRPRPSGLPRP | -0.199
39 | RRIRPRPPRLPRPRPRPSHCPRP | -0.666
40 | RRIRPRPPRLPRPRPRPSHIPRP | -0.505
41 | RRIRPRPPRLPRPRPRPSIQPRP | -0.696
42 | RRIRPRPPRLPRPRPRPSKMPRP | -0.169
43 | RRIRPRPPRLPRPRPRPSLMPRP | -0.155
44 | RRIRPRPPRLPRPRPRPSLQPRP | 0.0128
45 | RRIRPRPPRLPRPRPRPSMCPRP | -0.0117
46 | RRIRPRPPRLPRPRPRPSMWPRP | -0.252
47 | RRIRPRPPRLPRPRPRPSNAPRP | 0.055
48 | RRIRPRPPRLPRPRPRPSNWPRP | -0.184
49 | RRIRPRPPRLPRPRPRPSRCPRP | 0.093
50 | RRIRPRPPRLPRPRPRPSSSPRP | -0.134

Row | Sequence | shrunken log2 fold change
51 | RRIRPRPPRLPRPRPRPSTIPRP | -0.552
52 | RRIRPRPPRLPRPRPRPSTNPRP | -0.301
53 | RRIRPRPPRLPRPRPRPSWHPRP | 0.182
54 | RRIRPRPPRLPRPRPRPSWSPRP | -0.0705
55 | RRIRPRPPRLPRPRPRPSYDPRP | -0.526
56 | RRIRPRPPRLPRPRPRPSYFPRP | -0.514
57 | RRIRPRPPRLPRPRPRPTACPRP | 0.338
58 | RRIRPRPPRLPRPRPRPTAHPRP | 0.231
59 | RRIRPRPPRLPRPRPRPTCFPRP | 0.0572
60 | RRIRPRPPRLPRPRPRPTCGPRP | -0.0302
61 | RRIRPRPPRLPRPRPRPTECPRP | 0.0179
62 | RRIRPRPPRLPRPRPRPTFCPRP | 0.0727
63 | RRIRPRPPRLPRPRPRPTFQPRP | 0.408
64 | RRIRPRPPRLPRPRPRPTIEPRP | -0.0748
65 | RRIRPRPPRLPRPRPRPTLDPRP | 0.172
66 | RRIRPRPPRLPRPRPRPTLGPRP | 0.564
67 | RRIRPRPPRLPRPRPRPTMWPRP | 0.457
68 | RRIRPRPPRLPRPRPRPTNMPRP | -0.298
69 | RRIRPRPPRLPRPRPRPTPDPRP | 0.356
70 | RRIRPRPPRLPRPRPRPTPPPRP | 0.477
71 | RRIRPRPPRLPRPRPRPTRGPRP | 0.543
72 | RRIRPRPPRLPRPRPRPTRWPRP | -0.0766
73 | RRIRPRPPRLPRPRPRPTSCPRP | 0.193
74 | RRIRPRPPRLPRPRPRPTSNPRP | -0.123
75 | RRIRPRPPRLPRPRPRPTVDPRP | 0.0336

Row | Sequence | shrunken log2 fold change
76 | RRIRPRPPRLPRPRPRPTVKPRP | -0.00591
77 | RRIRPRPPRLPRPRPRPVARPRP | 0.245
78 | RRIRPRPPRLPRPRPRPVEHPRP | 0.00343
79 | RRIRPRPPRLPRPRPRPVEPPRP | 0.352
80 | RRIRPRPPRLPRPRPRPVFAPRP | 0.155
81 | RRIRPRPPRLPRPRPRPVGCPRP | 1.56
82 | RRIRPRPPRLPRPRPRPVGMPRP | -0.0812
83 | RRIRPRPPRLPRPRPRPVHEPRP | 0.497
84 | RRIRPRPPRLPRPRPRPVILPRP | -0.26
85 | RRIRPRPPRLPRPRPRPVLIPRP | -0.237
86 | RRIRPRPPRLPRPRPRPVMQPRP | 0.136
87 | RRIRPRPPRLPRPRPRPVPDPRP | 0.00557
88 | RRIRPRPPRLPRPRPRPVQSPRP | 0.131
89 | RRIRPRPPRLPRPRPRPVRFPRP | 0.28
90 | RRIRPRPPRLPRPRPRPVSCPRP | -0.095
91 | RRIRPRPPRLPRPRPRPVSVPRP | 0.0528
92 | RRIRPRPPRLPRPRPRPVVEPRP | -0.0705
93 | RRIRPRPPRLPRPRPRPVVHPRP | -0.205
94 | RRIRPRPPRLPRPRPRPVVMPRP | -0.174
95 | RRIRPRPPRLPRPRPRPVYAPRP | -0.261
96 | RRIRPRPPRLPRPRPRPVYEPRP | -0.0626
97 | RRIRPRPPRLPRPRPRPVYPPRP | 3.41
98 | RRIRPRPPRLPRPRPRPWACPRP | -0.00713
99 | RRIRPRPPRLPRPRPRPWANPRP | -0.0618
100 | RRIRPRPPRLPRPRPRPWCAPRP | 0.208

Row | Sequence | shrunken log2 fold change
101 | RRIRPRPPRLPRPRPRPWCWPRP | 0.233
102 | RRIRPRPPRLPRPRPRPWESPRP | 0.0303
103 | RRIRPRPPRLPRPRPRPWFAPRP | -0.116
104 | RRIRPRPPRLPRPRPRPWFLPRP | -0.458
105 | RRIRPRPPRLPRPRPRPWFYPRP | -0.543
106 | RRIRPRPPRLPRPRPRPWGTPRP | -0.0725
107 | RRIRPRPPRLPRPRPRPWHLPRP | -0.233
108 | RRIRPRPPRLPRPRPRPWHVPRP | -0.0812
109 | RRIRPRPPRLPRPRPRPWIFPRP | -0.0541
110 | RRIRPRPPRLPRPRPRPWIRPRP | -0.175
111 | RRIRPRPPRLPRPRPRPWMGPRP | -0.114
112 | RRIRPRPPRLPRPRPRPWNRPRP | 0.122
113 | RRIRPRPPRLPRPRPRPWPLPRP | 0.185
114 | RRIRPRPPRLPRPRPRPWPRPRP | 0.766
115 | RRIRPRPPRLPRPRPRPWQGPRP | -0.00211
116 | RRIRPRPPRLPRPRPRPWRQPRP | 0.0206
117 | RRIRPRPPRLPRPRPRPWSFPRP | -0.185
118 | RRIRPRPPRLPRPRPRPWTFPRP | -0.00547
119 | RRIRPRPPRLPRPRPRPWTLPRP | 0.104
120 | RRIRPRPPRLPRPRPRPWVGPRP | 0.0889
121 | RRIRPRPPRLPRPRPRPWVKPRP | -0.0754
122 | RRIRPRPPRLPRPRPRPWYFPRP | -1.02
123 | RRIRPRPPRLPRPRPRPWYQPRP | -0.0967
124 | RRIRPRPPRLPRPRPRPYALPRP | -1.08
125 | RRIRPRPPRLPRPRPRPYDYPRP | -0.355

Row | Sequence | shrunken log2 fold change
126 | RRIRPRPPRLPRPRPRPYEVPRP | -0.125
127 | RRIRPRPPRLPRPRPRPYFDPRP | -0.561
128 | RRIRPRPPRLPRPRPRPYHNPRP | -0.785
129 | RRIRPRPPRLPRPRPRPYHSPRP | -0.659
130 | RRIRPRPPRLPRPRPRPYILPRP | -0.588
131 | RRIRPRPPRLPRPRPRPYKDPRP | -0.477
132 | RRIRPRPPRLPRPRPRPYKGPRP | -0.437
133 | RRIRPRPPRLPRPRPRPYLEPRP | -0.634
134 | RRIRPRPPRLPRPRPRPYLGPRP | 3.16
135 | RRIRPRPPRLPRPRPRPYMNPRP | -1.01
136 | RRIRPRPPRLPRPRPRPYNIPRP | -1.66
137 | RRIRPRPPRLPRPRPRPYNRPRP | -0.0087
138 | RRIRPRPPRLPRPRPRPYPEPRP | -0.421
139 | RRIRPRPPRLPRPRPRPYSNPRP | -1.31
140 | RRIRPRPPRLPRPRPRPYTDPRP | -0.562
141 | RRIRPRPPRLPRPRPRPYWFPRP | -0.579
142 | RRIRPRPPRLPRPRPRPYYEPRP | -0.321
143 | RRIRQRPPRLPRPRPRPAADPRP | 0.0593
144 | RRIRQRPPRLPRPRPRPACCPRP | 0.162
145 | RRIRQRPPRLPRPRPRPACLPRP | 0.14
146 | RRIRQRPPRLPRPRPRPAEIPRP | -0.219
147 | RRIRQRPPRLPRPRPRPAFGPRP | 0.171
148 | RRIRQRPPRLPRPRPRPAFKPRP | -0.015
149 | RRIRQRPPRLPRPRPRPAGPPRP | -0.000608
150 | RRIRQRPPRLPRPRPRPAHHPRP | 0.138
